This note sets out measurements from paper PMC7703590.

The experiment addresses SARS-CoV-2 RBD-Fc (SARS-CoV-2) (UniProt P0DTC2). In words: BLI. A general note: Biolayer interferometry detects binding as a change in optical thickness at a sensor tip.

The substance IgG1 ab1 (from UniProt P01857) displayed a koff of 4e-05 s⁻¹. In turn, IgG1 ab1 (antibody) yielded an avidity of 160 pM.

Usually koff stands for a measure of how fast the partners let go of each other. Low readings indicate a long-lived complex, high ones a short-lived complex.
